Test results from paper PMC2213607 (The Journal of Cell Biology, 2008).
Residue numbers refer to the chain shown, from its start. In names and notes the source's numbering stands.

B1: GCC185 C-110 (fragment of the 110 C-terminal-most amino acids of GCC185) (domain or fragment, UniProt Q8IWJ2 1575-1684, looked up)
chain: LNGLLRETEATNAILMEQIKLLKSEIRRLERNQEREKSAANLEYLKNVLLQFIFLKPGSERERLLPVINTMLQLSPEEKGKLAAVAQGEEENASRSSGWASYLHSWSGLR
B2: GCC185 C-110 I1588A/L1595A (domain or fragment, UniProt Q8IWJ2 1575-1684, looked up)
chain: B1 chain with I14A, L21A

Experiments:
[1] = molecular target: His-tagged (6×) human Rab6A (human, UniProt P20340 1-208); experiment: pull-down
Chain of His-tagged (6×) human Rab6A (P20340 whole entry): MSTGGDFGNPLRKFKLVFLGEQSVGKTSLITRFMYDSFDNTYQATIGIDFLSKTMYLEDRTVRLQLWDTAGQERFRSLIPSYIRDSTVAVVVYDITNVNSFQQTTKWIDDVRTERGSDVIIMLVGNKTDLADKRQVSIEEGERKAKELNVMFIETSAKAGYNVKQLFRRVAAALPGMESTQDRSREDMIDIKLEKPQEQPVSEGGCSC

[2] = molecular target: the molecule itself

Binder | binding result [1] | stoichiometry N [2]
B1 | binds | –
B2 | – | 2
